T1: UL34^(174-194) peptide, unlabelled (HSV-1, UniProt P10218 174-194, N-terminal acetyl; C-terminal amide)
T1 peptide: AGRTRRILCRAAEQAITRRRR


Target: T1, UL34^(174-194) peptide, unlabelled
Experiment: cross-linking

| Binder | binding result |
| --- | --- |
| Ac-RRSRSSAAGGTLGVVRRASRK-NH2 [UL31^(22-42) peptide (middle of the UL31 MPR)] | binds |
| Ac-RKSLPPHARK-NH2 [UL31^(41-50) peptide (UL31 mini-MPR)] | binds |

— publication doi:10.1101/2021.05.18.444627 (bioRxiv, 2021)
